This note sets out measurements from patent US20120058906A1 (published 2012).

Experiment [1] addresses T1, rHuman HGF R/c-MET/Fc Chimera, CF (R&D Systems Cat#358-MT/CF) (human, UniProt P08581 25-932).
T1 construct: Bought Fc chimera; also called HGF R/Fc; Fc part of the bought chimera not given
Kind of experiment: MSD ECL titration, Fab 2383 nM, blank 344.

Experiment [2] concerns the target T2, rHuman CD44/Fc Chimera, CF (R&D Systems Cat#3660-CD) (human, UniProt P16070 21-220).
T2 construct: Bought Fc chimera; Fc part of the bought chimera not given
In words: MSD ECL titration, Fab 2383 nM, blank 344.

Experiment [3] concerns the target T3, rHuman P-Cadherin/Fc Chimera, CF (R&D Systems Cat#861-PC) (human, UniProt P22223 108-654).
T3 construct: Bought Fc chimera; Fc part of the bought chimera not given
Kind of experiment: MSD ECL titration, Fab 2383 nM, blank 344.

The target of experiment [4] is T4, rHuman Erythropoietin R/Fc Chimera, CF (R&D Systems Cat#963-ER) (human, UniProt P19235 25-250).
T4 construct: Bought Fc chimera; also called EPO R/Fc; EPOR; Fc part of the bought chimera not given
T4 sequence: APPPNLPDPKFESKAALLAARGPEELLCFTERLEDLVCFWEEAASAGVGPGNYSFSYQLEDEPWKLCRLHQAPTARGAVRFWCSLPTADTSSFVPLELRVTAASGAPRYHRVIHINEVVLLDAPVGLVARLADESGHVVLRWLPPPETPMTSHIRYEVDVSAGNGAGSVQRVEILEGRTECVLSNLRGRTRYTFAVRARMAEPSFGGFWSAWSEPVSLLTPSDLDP
Kind of experiment: MSD ECL titration, Fab 2383 nM, blank 344.

The target of experiment [5] is T5, rHuman Notch-1/Fc Chimera, CF (R&D Systems Cat#3647-TK) (human, UniProt P46531 19-526).
T5 construct: Bought Fc chimera; Fc part of the bought chimera not given
Kind of experiment: MSD ECL titration, Fab 2383 nM, blank 344.

Experiment [6] has as its target T6, rHuman CD44/Fc Chimera, CF (R&D Systems Cat#3660-CD) (human, UniProt P16070 21-220).
T6 construct: Purchased Fc chimera; not shown: Fc portion of the purchased chimera
Kind of experiment: MSD ECL multi-spot plate, antigen immobilized; Fab 1.6 nM; blank spot 449.

Experiment [7] addresses T7, rHuman HGF R/c-MET/Fc Chimera, CF (R&D Systems Cat#358-MT/CF) (human, UniProt P08581 25-932).
T7 construct: Purchased Fc chimera; also called HGF R/Fc; not shown: Fc portion of the purchased chimera
Described as above.

Experiment [8] has as its target T8, Recombinant Human DLL4 (R&D Systems Cat#1506-D4/CF) (human, UniProt Q9NR61 27-524).
T8 construct: Purchased recombinant protein; also called delta-like protein 4
The experiment is described as above.

Experiment [9] concerns the target T9, rHuman Erythropoietin R/Fc Chimera, CF (R&D Systems Cat#963-ER) (human, UniProt P19235 25-250).
T9 construct: Purchased Fc chimera; also called EPO R/Fc; Epo R; not shown: Fc portion of the purchased chimera
T9 sequence: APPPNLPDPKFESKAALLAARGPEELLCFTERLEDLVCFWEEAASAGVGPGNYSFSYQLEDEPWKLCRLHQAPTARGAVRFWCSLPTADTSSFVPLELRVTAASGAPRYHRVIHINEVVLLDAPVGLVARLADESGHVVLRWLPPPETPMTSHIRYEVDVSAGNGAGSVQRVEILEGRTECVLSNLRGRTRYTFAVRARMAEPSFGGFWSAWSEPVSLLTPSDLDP
The description is as above.

The target in experiment [10] is T10, rHuman IGF-1 sR (IGF-1 sR), CF (R&D Systems Cat#391-GR) (human, UniProt P08069 31-932).
T10 construct: Purchased soluble receptor; also called insulin-like growth factor-1 soluble receptor; IGF-R1
The experiment is described as above.

Experiment [11] concerns the target T11, rHuman Notch-1/Fc Chimera, CF (R&D Systems Cat#3647-TK) (human, UniProt P46531 19-526).
T11 construct: Purchased Fc chimera; not shown: Fc portion of the purchased chimera
Described as above.

Experiment [12] concerns the target T12, rHuman P-Cadherin/Fc Chimera, CF (R&D Systems Cat#861-PC) (human, UniProt P22223 108-654).
T12 construct: Purchased Fc chimera; not shown: Fc portion of the purchased chimera
The experiment is described as above.

Experiment [13] addresses T13, rHuman ErbB2/Fc Chimera, CF (R&D Systems Cat#1129-ER) (human, UniProt P04626 23-652).
T13 construct: Purchased Fc chimera; also called HER2/neu; not shown: Fc portion of the purchased chimera
The experiment is described as above.

For experiment [14], the target named is T14, rHuman EGF R/Fc Chimera, CF (R&D Systems Cat#344-ER) (human, UniProt P00533 25-645).
T14 construct: Purchased Fc chimera; not shown: Fc portion of the purchased chimera
Described as above.

The target in experiment [15] is T15, rHuman Notch-1/Fc Chimera, CF (R&D Systems Cat#3647-TK) (human, UniProt P46531 19-526).
T15 construct: Bought Fc chimera; Fc part of the bought chimera not given
Kind of experiment: ECL (MSD Multi-Spot) binding assay, antigen spotted on plate; Fab 7.5 nM; blank spot 217.

Experiment [16] addresses T16, rHuman P-Cadherin/Fc Chimera, CF (R&D Systems Cat#861-PC) (human, UniProt P22223 108-654).
T16 construct: Bought Fc chimera; also called CDH3; Fc part of the bought chimera not given
Described as above.

In experiment [17] the target is T17, rHuman Erythropoietin R/Fc Chimera, CF (R&D Systems Cat#963-ER) (human, UniProt P19235 25-250).
T17 construct: Bought Fc chimera; also called EPO R/Fc; Epo R; Fc part of the bought chimera not given
T17 sequence: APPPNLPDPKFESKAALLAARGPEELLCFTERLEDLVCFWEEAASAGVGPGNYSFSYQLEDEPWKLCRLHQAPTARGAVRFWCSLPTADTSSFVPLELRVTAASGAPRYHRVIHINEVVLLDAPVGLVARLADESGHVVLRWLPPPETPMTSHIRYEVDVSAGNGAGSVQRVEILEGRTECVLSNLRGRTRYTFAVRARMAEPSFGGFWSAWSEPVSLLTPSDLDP
The experiment is described as above.

Experiment [18] deals with T18, Recombinant Human DLL4 (R&D Systems Cat#1506-D4/CF) (human, UniProt Q9NR61 27-524).
T18 construct: Bought recombinant protein; also called delta-like protein 4; rHuman DLL4
The description is as above.

For experiment [19], the target named is T19, rHuman CD44/Fc Chimera, CF (R&D Systems Cat#3660-CD) (human, UniProt P16070 21-220).
T19 construct: Bought Fc chimera; Fc part of the bought chimera not given
Described as above.
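Also: blank spot per well as comparator with Hit at signal to blank ratio of 4 or more.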

B1: Fab VH1-46_IGHD6-6*01_IGHJ1*01 & L6_IGKJ1*01 (Fab, V domains shown)
VH: QVQLVQSGAEVKKPGASVKVSCKASGYTFTSYYMHWVRQAPGQGLEWMGIINPSGGSTSYAQKFQGRVTMTRDTSTSTVYMELSSLRSEDTAVYYCAREEYSSSSAEYFQHWGQGTLVTVSS
VL: not shown
notes: Expressed in E. coli as Fab: heavy chain with CH1 plus Flag and His tags from Plasmid A, kappa light chain constant region from Plasmid C; also called Fab No. 1
For the molecule B1, the ECL signal in [1] amounted to 762; in experiment [2] it was 559; in [3], 728; in experiment [4], 658; in experiment [5], 690.

B2: Fab VH5-51_IGHD5-18*01>3_IGHJ4*01_G100R & V3-4_IGLJ1*01 (Fab, V domains shown)
VH: EVQLVQSGAEVKKPGESLKISCKGSGYSFTSYWIGWVRQMPGKGLEWMGIIYPGDSDTRYSPSFQGQVTISADKSISTAYLQWSSLKASDTAMYYCARRRYSYGYDYFDYWGQGTLVTVSS
VL: QTVVTQEPSFSVSPGGTVTLTCGLSSGSVSTSYYPSWYQQTPGQAPRTLIYSTNTRSSGVPDRFSGSILGNKAALTITGAQADDESDYYCVLYMGSGISYVFGTGTKVTVL
notes: It was expressed as a Fab: CH1 with tags from Plasmid A and lambda CL from Plasmid E; also called Fab No. 23
Consider B2, for which the ECL signal in experiment [6] stood at 997 ECL signal; in [7], 1210 ECL signal; in experiment [8], 1540 ECL signal; in experiment [9] it was 920 ECL signal; in [10], 1330 ECL signal; in [11] it was 1050 ECL signal. In addition, the ECL signal amounted to 666 ECL signal in experiment [12], 1440 ECL signal in experiment [13] and 1200 ECL signal in [14].

B3: Fab VH6-1_IGHD3-3*01_IGHJ4*01 & V4-3_IGLJ4*01 (Fab, V domains shown)
VH: QVQLQQSGPGLVKPSQTLSLTCAISGDSVSSNSAAWNWIRQSPSRGLEWLGRTYYRSKWYNDYAVSVKSRITINPDTSKNQFSLQLNSVTPEDTAVYYCAREYYDFWSGYYTDYFDYWGQGTLVTVSS
VL: QPVLTQPTSLSASPGASARLTCTLRSGINLGSYRIFWYQQKPESPPRYLLSYYSDSSKHQGSGVPSRFSGSKDASSNAGILVISGLQSEDEADYYCMIWHSSASFVFGGGTQLIIL
notes: Tested as a Fab made in E. coli; also called IGHV6-1*01
As to B3, the ECL signal in [15] turned out to be 392; in [16] it was 352; in [17] it was 443; in [18], 598; in [19], 444.
